The results in this text go back to publication PMC9917171, “Yet Another Similarity between Mitochondrial and Bacterial Ribosomal Small Subunit Biogenesis Obtained by Structural Characterization of RbfA from S. aureus” (International Journal of Molecular Sciences, 2023).

The experiment concerns the target ribosomal binding factor A (RbfA) from Staphylococcus aureus, histidine tag at the N-terminus (S. aureus, UniProt A5ISF4 1-116). The experiment can be described thus: cryo-EM structure; 30S-RbfA complex reconstituted by mixing mature S. aureus 30S subunits and recombinant RbfA (1:30); overall resolution 2.9 Å. The following applies: both partners purified.

B1: ribosomal protein S7 of the S. aureus 30S subunit (natural protein)
chain: MPRKGSVPKRDVLPDPIHNSKLVTKLINKIMLDGKRGTAQRILYSAFDLVEQRSGRDALEVFEEAINNIMPVLEVKARRVGGSNYQVPVEVRPERRTTLGLRWLVNYARLRGEKTMEDRLANEILDAANNTGGAVKKREDTHKMAEANKAFAHYRW
notes: 30S ribosomal protein S7, S. aureus RN6390; model built from the published S. aureus 30S (PDB 5ND8); Stood in the assay as part of the whole 30S subunit (16S rRNA and the other small subunit proteins; S21 and S1 not seen in the density); also called S7 head protein; source: endogenous, within 30S subunits obtained by dissociation of 70S ribosomes purified from S. aureus RN6390
Turning to B1, the binding result is reported as “binds”.
